Measured values as given in patent US20170174769A1 (Regeneron, published 2017).

T1: extracellular domain of human FGFR1c expressed with C-terminal V5 and hexahistidine tags (human, UniProt P11362 22-376)
T1 construct: also called hFGFR1c-V5-6His
T1 sequence: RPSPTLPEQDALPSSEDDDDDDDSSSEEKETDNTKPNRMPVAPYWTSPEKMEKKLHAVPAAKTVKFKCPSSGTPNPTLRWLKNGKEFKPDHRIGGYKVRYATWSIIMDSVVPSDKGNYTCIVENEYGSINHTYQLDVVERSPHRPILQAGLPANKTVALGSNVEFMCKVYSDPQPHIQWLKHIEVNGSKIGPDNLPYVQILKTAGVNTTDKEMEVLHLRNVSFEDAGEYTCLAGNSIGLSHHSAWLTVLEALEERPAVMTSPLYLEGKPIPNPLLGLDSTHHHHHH

T2: extracellular domain of human KLB expressed with C-terminal HA and hexahistidine tags (human, UniProt Q86Z14 1-996)
T2 construct: also called hKLB-HA-6His; hKLB-HA-6his
T2 sequence: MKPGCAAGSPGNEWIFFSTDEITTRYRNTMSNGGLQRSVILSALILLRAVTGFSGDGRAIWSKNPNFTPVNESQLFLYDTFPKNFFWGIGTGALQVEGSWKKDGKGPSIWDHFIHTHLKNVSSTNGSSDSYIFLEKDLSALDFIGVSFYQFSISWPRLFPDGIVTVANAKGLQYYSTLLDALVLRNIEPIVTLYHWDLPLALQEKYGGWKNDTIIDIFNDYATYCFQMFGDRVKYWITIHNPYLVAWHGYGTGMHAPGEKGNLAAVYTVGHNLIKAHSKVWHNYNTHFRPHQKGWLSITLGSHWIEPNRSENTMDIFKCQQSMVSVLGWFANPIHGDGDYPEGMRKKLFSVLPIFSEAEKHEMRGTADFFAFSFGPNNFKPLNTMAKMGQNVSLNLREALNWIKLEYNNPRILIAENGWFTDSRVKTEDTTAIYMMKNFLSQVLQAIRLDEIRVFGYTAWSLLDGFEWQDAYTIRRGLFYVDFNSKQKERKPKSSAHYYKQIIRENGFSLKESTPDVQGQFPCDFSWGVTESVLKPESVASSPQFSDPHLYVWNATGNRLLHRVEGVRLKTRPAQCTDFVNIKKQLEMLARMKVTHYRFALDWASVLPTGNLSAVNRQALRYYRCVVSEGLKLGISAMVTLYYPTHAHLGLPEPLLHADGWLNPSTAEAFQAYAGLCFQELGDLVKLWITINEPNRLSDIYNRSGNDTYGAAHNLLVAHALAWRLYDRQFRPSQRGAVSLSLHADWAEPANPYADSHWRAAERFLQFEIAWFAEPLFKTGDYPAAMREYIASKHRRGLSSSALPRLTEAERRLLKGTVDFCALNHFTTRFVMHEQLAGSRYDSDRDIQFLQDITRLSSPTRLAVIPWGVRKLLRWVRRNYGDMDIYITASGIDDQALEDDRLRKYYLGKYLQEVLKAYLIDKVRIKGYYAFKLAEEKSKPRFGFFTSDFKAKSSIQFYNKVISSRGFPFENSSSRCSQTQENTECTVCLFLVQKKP

B1: H4H8881P (antibody, V domains shown)
VH: QVQLVQSGAEVKKPGASVKVSCKASGYTFTSYVIHWVRQAPGQRLEWMGWSNAANGDTKYSQEFQDRVTFTRDTSASTAYMELSSLRSEDMAVYYCARWNWNYGAFDIWGQGTMVTVSS
VL: DIQMTQSPSSLSASVGDRVTITCQASQDINNYLHWYQQKSGKAPNLLIYDASILETGVPSRFSGSGSGTDFTFTISSLQPEDIATYYCQQYDNLPYTFGQGTKLEIK
notes: human IgG4 Fc (H4H prefix)
B2: H4H8880P (antibody, V domains shown)
VH: EVQLVESGGGVVQPGGSLRLSCAASGFTFSLYAMSWVRQAPGKGLEWVSAISGSAHGAYYADSVKGRFTISRDNSKNSLYLQMNSLRAEDTAIYYCAKDLVIAVAGTFDYWGQGTLVTVSS
VL: DIQMTQSPSSLSASVGDRVTITCRASQIISTYLNWYQQKPGKAPKILIYTASSLKSGVPSRFSGSGSGTDFTLTISSLQPEDFATYYCQQTYSSPRFTFGPGTKVDIK
notes: human IgG4 Fc (H4H prefix)
B3: H4H8871P (antibody, V domains shown)
VH: QVQLQESGPGLVKPSETLSLTCTVSGASISSYYWSWIRQPPGKGLEWIGYIYSSGIIKYNPSLKSRVTISADTSKNQFSLKLSSVTAADTAVYYCARHGIFGVMEYFQRWGQGTLVTVSS
VL: DIQMTQSPSSLSASIGDRVTITCQASQDIGNFLNWYHQKPGKAPTLLIYDASNMETGVPSRFRGSGSGTYFTFIISSLQPEDVATYYCQQYDNLPLTFGGGTKVEIK
notes: human IgG4 Fc (H4H prefix)
B4: H1H8897P (antibody, V domains shown)
VH: QVQLVESGGGLVKPGGSLRLSCAAAGFTFSDYYMSWIRQAPGQGLEWVSYISPSGSTTYYADSVQGRFTISRDNAKSSLYLQMNSLRAEDTAVYYCARTGIQLWSVYFDYWGQGTLVTVSS
VL: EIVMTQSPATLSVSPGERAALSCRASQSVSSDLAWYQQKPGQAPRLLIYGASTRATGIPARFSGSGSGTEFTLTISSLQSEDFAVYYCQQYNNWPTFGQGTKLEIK
notes: H1H Fc prefix (human Fc)
B5: H1H8898P (antibody, V domains shown)
VH: QVQLVESGGGLVKPGGSLRLSCAASGFIFSDYYMSWIRQAPGKGLDWISYISPSGSTIYYADSVKGRFTISRDNAKNSLYLQMNSLRADDTAVYYCARTGIQLWSVYFDYWGQGTLVTVSS
VL: EIVMTQSPATLSVSPGERATLSCRASQSVGSNLAWYQQKPGQAPRLLIYGASTRANGIPARFSGSGSGTEFTLTISGLQSEDFAVYYCQQYNNWPTFGQGTKLEIK
notes: H1H Fc prefix (human Fc)
B6: H4H8878P (antibody, V domains shown)
VH: QVQLVESGGGVVQPGRSLRLSCAASGFTLNTYGMHWIRQTPGKGLEWVSLISYDETKEYYVDSVKGRFTISRDNSKNTLYLQMNSVRVEDTAVYYCAKPLTGSTDYYYGLDVWGQGTTVTVSS
VL: DIQMTQSPSYVSASVGDRVIITCRASQDISSWLAWYQQKPGKAPKLLIYVTSSLESGVPSRFSGSGSGTDFTLTISGLQPEDFATYYCQQVKSFPPTFGPGTKVDIK
notes: human IgG4 Fc (H4H prefix)

Assays:
[1] = target: M. fascicularis KLB and human FGFR1c co-expressed on HEK293/MfKLB/hFGFR1c/SRE-Luc cells (M. fascicularis; human, UniProt A0A2K5WB58 1-1044); test: cell-based or functional assay
[2] = target: T1, extracellular domain of human FGFR1c …; test: SPR, mAb captured, 25 C
Method in brief: (§1)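 Anti-KLB/FGFR1c mAbs were captured on amine-coupled rabbit anti-mouse or mouse anti-human Fc surfaces, per antibody Fc. Analyte flowed in HEPES pH 7.4, 0.15M NaCl, 3mM EDTA, 0.05% P20; association monitored 3.5 to 4 minutes, dissociation 8-12 minutes.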

[3] = target: T2, extracellular domain of human KLB …; test: SPR, mAb captured, 25 C
Method in brief: as §1

[4] = target: T3, human KLB and human FGFR1c co-expressed on HEK293/hKLB/hFGFR1c/SRE-luc cells (human, UniProt Q86Z14 1-1044; P11362 22-822); test: cell-based or functional assay
[5] = target: T3, human KLB and human FGFR1c co-expressed …; test: cell-based or functional assay; remark: listed apart in the source
[6] = target: T1, extracellular domain of human FGFR1c …; test: SPR, mAb captured, 37 C
Method in brief: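 Surface plasmon resonance with Fc-capture of each monoclonal antibody. Running buffer was 0.01M HEPES pH 7.4, 0.15M NaCl, 3mM EDTA, 0.05% v/v Surfactant P20. Rate constants fit to a 1:1 model yielded KD.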

[7] = target: T2, extracellular domain of human KLB …; test: SPR, mAb captured, 37 C
Method in brief: as §1

Binder | EC50, SRE-luc activation without ligand [1] [nM] | IC50, inhibition of 10 nM mfFGF21 [1] [nM] | Maximum Inhibition (%) of 10 nM mfFGF21 [1] [%] | 180 nM hFGFR1c-V5-6His Bind (RU) [2] [RU] | binding result [2] | 20 nM hKLB-HA-6His Bind (RU) [3] [RU] | Kd [3] [nM] | koff [3] [s⁻¹] | kon [3] [M⁻¹ s⁻¹] | t1/2 [3] [min] | IC50, inhibition of 1 nM hFGF21 [4] [nM] | Maximum Inhibition (%) of 1 nM hFGF21 [4] [%] | EC50, SRE-luc activation without ligand [5] [nM] | Maximum Activation (%) without ligand [5] [%] | 180 nM hFGFR1c-V5-6His Bind (RU) [6] [RU] | 20 nM hKLB-HA-6His Bind (RU) [7] [RU] | Kd [7] [nM] | koff [7] [s⁻¹] | kon [7] [M⁻¹ s⁻¹] | t1/2 [7] [min] | also measured
B1 | 0.02 | 0.046 | 77 | 0.3 | no binding (tested: 180 nM) | 92.7 | 0.124 | 0.000178 | 1.44e+06 | 65 | 0.067 | 77 | 0.072 | 7 | 0 | 101 | 0.32 | 0.000463 | 1.45e+06 | 24.9 | Maximum Activation (%) without ligand [1]: 3%
B2 | – | 0.12 | 39 | 0.4 | no binding (tested: 180 nM) | 68.1 | 0.64 | 0.000287 | 448000 | 40.3 | 0.15 | 39 | 0.054 | 1 | 0.1 | 148 | 0.945 | 0.000526 | 556000 | 22 | –
B3 | 0.13 | 0.39 | 92 | 0.4 | – | -0.7 | – | – | – | – | 0.38 | 92 | 0.18 | 5 | -1.4 | -0.9 | – | – | – | – | Maximum Activation (%) without ligand [1]: 4%
B4 | – | 5.2 | 101 | 0.9 | no binding (tested: 180 nM) | -0.4 | – | – | – | – | 0.97 | 101 | 19 | 1 | 0.7 | 1.9 | – | – | – | – | –
B5 | – | 12 | 97 | 2.9 | no binding (tested: 180 nM) | -0.2 | – | – | – | – | 2 | 97 | 8.9 | 3 | 0.4 | -1.9 | – | – | – | – | –
B6 | – | 0.12 | 38 | 0.4 | no binding (tested: 180 nM) | 28.4 | 1.25 | 0.000213 | 170000 | 54.3 | 0.23 | 38 | 0.41 | 1 | 0.8 | 101 | 0.305 | 0.000241 | 790000 | 48 | –
